In US20190298743A1, “TREATMENT OF PAIN” (Takeda Pharmaceutical Company Limited, priority 2016, published 2019):

Experiments:
PAR2 [1] = assay: BRET receptor trafficking, PAR2-RLuc8 with plasma membrane marker RIT-venus in HEK293 cells; format: cell-based; settings: trypsin 10 nM
Experimental: (§1) Bret studies of receptor trafficking were conducted to quantify PAR2 internalisation (RIT-venus) and trafficking to early endosomes (Rab5a-venus) upon stimulation with different agonists.
(§2) After achieving ˜50% confluency within 10 cm dishes HEK293 cells were transiently transfected with 1 μg PAR2-RLuc8 and 4 μg of either RIT-venus or Rab5a-venus using PEI as a transfection agent. 24 hours post transfection, cells were seeded into poly-D-lysine coated 96-well isoplates. […] When used endocytic inhibitors were diluted in 1×HBSS+1% dimethyl sulfoxide (DMSO). Following the replacement of culture media cells were allowed to equilibrate at 37° C. for 30 minutes before the addition of colenterazine H [5 μM]. After a further 5 minute incubation BRET was assessed using a LUMIstar Omega microplate reader (BMG LabTech, Offenburg, Germany), with luminescence being read at 535 nm and 475 nm. A 4 minute baseline was obtained before the addition of vehicle (1×HBSS+/−1% DMSO) or protease, measurements were then continued for a further 30 minutes. BRET ratios were calculated using LUMIstar MARS analysis software and then corrected to baseline and vehicle treatments in Microsoft Excel 2013.

PAR2 [2] = assay: BRET receptor trafficking, PAR2-RLuc8 with early endosomal marker Rab5a-venus in HEK293 cells; format: cell-based; settings: trypsin 10 nM
Experimental: as §1, §2

PAR2 [3] = assay: FRET biosensors for compartmentalised cAMP, PKC and ERK signals in HEK cells and rat dorsal root ganglia neurons; format: cell-based
Experimental: (§3) The contribution of endocytosis of protease-activated receptor-2 (PAR2) was evaluated for generation of signals in subcellular compartments that mediate protease-evoked sensitization of nociceptors. Bioluminescence resonance energy transfer (BRET) was used to assess the proximity of PAR2 to resident proteins of the plasma membrane (KRas) and endosomes (Rab5a) in HEK cells. […] Förster resonance energy transfer (FRET) biosensors targeted to the plasma membrane, cytosol or nucleus were used to examine the capacity of proteases to generate signals in subcellular compartments of HEK cells and rat dorsal root ganglia neurons. […] Dynamin inhibitor Dyngo4a, Clathrin inhibitor Pitstop2 and dominant negative β-arrestin inhibited trypsin-evoked endocytosis of PAR2, and prevented trypsin-evoked activation of cytosolic cAMP and PKC and nuclear ERK. […] To examine the link between PAR2 endocytosis, compartmentalized signaling and nociceptor sensitization, perforated patch clamp recordings were made from mouse dorsal root ganglia neurons. […] The effects of proteases on excitability were blocked by the PAR2 antagonist GB88. Thus, canonical and biased proteases sensitize nociceptors by distinct mechanisms. For canonical agonists, PAR2 endocytosis generates compartmentalized signals subcellular compartments that underlie sustained excitability of nociceptive neurons. […]

[4] = Protease-evoked paw edema, hindpaw thickness; format: in vivo, mice; settings: ipsilateral paw
Experimental: (§4) Immediately before experiments the mice were acclimatized to the experimental apparatus, room and investigator for 1-2 h on 2 successive days. Mechanical nociceptive responses were evaluated by paw withdrawal to stimulation of the plantar surface of the hind-paw with calibrated von Frey filaments. von Frey scores were measured in triplicate to establish a baseline for each animal on the day before experiments. Paw edema was estimated by measuring the thickness of the hindpaw using digital calipers before and after treatments. Mice were […] with 5% isoflurane for intraplantar injections. Dyngo4a (50 μM), PitStop2 (50 μM) or vehicle (0.2% DMSO in 0.9% NaCl) (all 10 μl) were injected into the left hindpaw. After 30 min, trypsin (10 nM), Cat-S (2.5 μM) or elastase (30 U) (all 10 μl) were injected into the same left hindpaw. von Frey scores (left and right paws) and paw thickness (left paw) were measured hourly for up to 4 h after protease injection. Investigators were blinded to the test agents.

[5] = Protease-evoked mechanical hyperalgesia, von Frey paw withdrawal; format: in vivo, mice; settings: ipsilateral paw
Experimental: as §4

DRG neurons = assay: Perforated patch-clamp excitability (rheobase) of isolated DRG neurons; format: cell-based, mice; settings: 0 min and 30 min after washing
Experimental: To assess the effects of proteases on excitability of nociceptors, DRG neurons were preincubated with trypsin, cathepsin S, elastase or vehicle (control), washed, and rheobase and action potential discharge at a current of twice rheobase were measured at 0 min or 30 min after washing.
DRG (T9-T13) from C57BL/6 mice were digested by incubation in collagenase (1 mg/ml, Worthington Biochemical, Lakewood, N.J.) and dispase (4 mg/ml, Roche Life Science, Indianapolis, Ind.) for 10 min at 37° C., and were dispersed by trituration with a fire-polished Pasteur pipette. Cells were plated onto coverslips coated with laminin (0.017 mg/ml) and poly-D-lysine (2 mg/ml) in 24-well plates. […]
Neuronal excitability was assessed by perforated patch-clamp recordings with amphotericin B (240 μg/ml) from small diameter neurons (<30 pF capacitance) in current clamp mode at room temperature. Only neurons with resting membrane potentials more negative than −40 mV were analyzed. Changes in excitability were quantified by measuring rheobase (minimum current to fire action potential) and numbers of action potentials discharged at twice rheobase. […]
Results are expressed as mean±SE. […]

PAR2 [6] = assay: BRET proximity of PAR2 to KRas (plasma membrane) and Rab5a (endosomes) in HEK cells; format: cell-based; settings: HEK cells
Experimental: as §3

B1: cathepsin S: biased agonist protease of PAR2 (protein, UniProt P25774 115-331, looked up)
Cathepsin S: LPDSVDWREKGCVTEVKYQGSCGACWAFSAVGALEAQLKLKTGKLVSLSAQNLVDCSTEKYGNKGCNGGFMTTAFQYIIDNKGIDSDASYPYKAMDQKCQYDSKYRAATCSKYTELPYGREDVLKEAVANKGPVSVGVDARHPSFFLYRSGVYYEPSCTQNVNHGVLVVGYGDLNGKEYWLVKNSWGHNFGEEGYIRMARNKGNHCGIASFPSYPEI
For B1, the “Change in BRET between PAR2 and plasma membrane marker upon agonist stimulation” value (PAR2 [1]) was “not observed”, the “Change in BRET between PAR2 and early endosomal marker upon agonist stimulation” value (PAR2 [2]) was “not observed” and the “Signals generated by protease in subcellular compartments” value (PAR2 [3]) was “only activated cAMP and PKC at the plasma membrane and ERK in the cytosol”. The “Edema after intraplantar injection of protease” value [4] was “edema of the ipsilateral paw that was maximal after 4 h”, the “Mechanical hyperalgesia after intraplantar injection of protease” value [5] was “caused mechanical hyperalgesia of the ipsilateral paw that was sustained for at least 4 h” and the “Effect of protease on excitability (rheobase) of DRG neurons” value (DRG neurons) was “immediate increase in excitability”. The “PAR2 endocytosis induced by agonist” value (PAR2 [6]) was “did not induce PAR2 endocytosis”.
